Experimental data reported in patent US6852686B2, “Methods for ameliorating icthyosiform skin diseases” (The United States of America as represented by the …, priority 1999, dated 2005).
Where two headings read alike, the source gives them in different places.

Experiments:
TGase 1 [1] = biological target: T1, TGase 1 (Homo sapiens, UniProt P22735); experiment: Free Ca++ dependence of 14C-putrescine incorporation by TGase 1; format: biochemical
T1 construct: Recombinant full-length human TGase 1 and TGase 3 enzymes were expressed in Sf9 cells by the BaculoGold system; made in house; host or cells: Sf9 insect cells, BaculoGold baculovirus system, pVL1392 vector
T1 sequence (P22735 1-817): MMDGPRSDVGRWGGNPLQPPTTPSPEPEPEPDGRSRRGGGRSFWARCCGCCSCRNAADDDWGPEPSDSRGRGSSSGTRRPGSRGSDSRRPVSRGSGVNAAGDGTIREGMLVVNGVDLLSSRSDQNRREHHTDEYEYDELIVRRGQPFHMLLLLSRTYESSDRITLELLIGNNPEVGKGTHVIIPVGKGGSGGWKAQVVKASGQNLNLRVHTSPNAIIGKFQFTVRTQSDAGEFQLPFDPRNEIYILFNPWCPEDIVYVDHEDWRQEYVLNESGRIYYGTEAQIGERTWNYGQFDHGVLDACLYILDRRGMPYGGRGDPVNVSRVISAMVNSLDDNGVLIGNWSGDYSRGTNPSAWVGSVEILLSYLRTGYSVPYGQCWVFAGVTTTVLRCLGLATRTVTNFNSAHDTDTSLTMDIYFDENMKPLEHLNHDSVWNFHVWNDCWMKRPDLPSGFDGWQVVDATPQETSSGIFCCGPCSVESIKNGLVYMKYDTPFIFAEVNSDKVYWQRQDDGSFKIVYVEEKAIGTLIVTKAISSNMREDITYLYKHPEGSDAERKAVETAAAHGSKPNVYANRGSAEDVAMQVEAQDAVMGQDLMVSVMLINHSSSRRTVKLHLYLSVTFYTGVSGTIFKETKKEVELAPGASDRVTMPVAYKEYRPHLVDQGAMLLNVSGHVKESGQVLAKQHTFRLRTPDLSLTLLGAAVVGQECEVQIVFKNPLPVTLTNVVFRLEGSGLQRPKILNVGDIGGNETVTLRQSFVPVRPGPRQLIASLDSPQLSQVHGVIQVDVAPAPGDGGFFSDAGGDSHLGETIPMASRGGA
Protocol: Activity values are given as percent of the values measured at 1 mM Ca^++. […] Points represent the means±s.d. of three independent measurements.
The optimal Ca^++ ion concentration required for the TGase 1 reaction has not been measured for any substrate. Standard in vitro solution assays contain 1-5 mM Ca^++. (Folk, J. E. and J. S. Finlayson, Adv. Protein Chem., 31: 1-133 (1977); Folk, J. E., Adv. Enzymol. Related Areas Mol. Biol., 54: 1-56 (1983); and Lorand, L. S. M. Conrad, Mol. Cell Biochem., 58: 9-35 (1984)). […] (FIG. 6, open symbols). […] (FIG. 2).
(§1) The Ca^++ concentrations in the μM range were set by buffering free Ca^++ with chelators The desired Ca^++/chelator ratios were calculated by the WinMaxC 1.7 computer program (Bers, et al., Methods in Cell Biology Vol 40: A Practical Guide to the Study of Ca^2+ in Living Cells, Nuccitelli, R., ed., pp. 1-327 (1994), herein expressly incorporated by reference in its entirety), and were made by adding the required amounts of 1 M CaCl2 to 0.2 M stock solutions of the following chelators at pH 8.0. Final chelator concentrations in the samples were 10 mM in all cases. Sodium citrate was the chelator for the 20-500 μM Ca^++ range; sodium nitrilotriacetate for the 1-20 μM Ca^++ range; and sodium 1,2-bis(aminophenoxy)ethane-N,N,N′,N′ tetraacetate for the 0.1-1 μM Ca^++ range.

[2] = system: synthetic lipid vesicles (SLV); experiment: Membrane association (binding) to synthetic lipid vesicles, SLV pelleted by ultracentrifugation
Protocol: Mixtures of dipalmitoyl-phosphatidylcholine, cholesterol, dipalmitoyl-phosphatidylserine (PS) and other lipids where indicated (all from Sigma, St. Louis, Mo.) were made in chloroform-methanol (95:5). In all cases, the mixtures contained 30% cholesterol. When the amounts of PS or other individual components were varied, phosphatidylcholine was added to make the mixture to 100%. Mixtures were made in 0.5 ml and contained 10 μmol of total lipids. The solvent was flushed away under a stream of N2, dried further under high vacuum for 4 h and then resuspended by vortexing in 0.5 ml of a buffer containing 50 mM Tris-Cl (pH 8.0), 100 mM NaCl, 3 mM NaN3, 5 mM DTT, and 200 mM sucrose. The mixture was sonicated on ice five times each for 1 min using a Branson 250 sonifier with micro probe tip, and allowed to stand at 23° C. to facilitate assembly of SLV. After 1 h the SLV were diluted with 0.5 ml of the above buffer without sucrose, and 200 μl aliquots were centrifuged at 100,000× g for 30 min in a Beckman Airfuge using the A-10 rotor. The top 175 μl was removed, and the pellet resuspended in another 150 μl of sucrose-free buffer. The final stock concentration was 11 μmol/ml.
In all cases, the buffer contained 50 mM Tris-HCl (pH 8.0), 100 mM NaCl, 1 mM DTT, 3 mM NaN3, and other additives where noted. Some mixtures also contained 1 mM CaCl2 or 2 mM EDTA. After mixing, the samples were centrifuged for 45 min at 100,000× g, and the protein content from 50 μl of supernatant was determined by amino acid analysis after acid hydrolysis. Data were usually not corrected for loss of SLV lipids, as in control experiments, cumulated losses were <4% as assayed by ^14C-phosphatidylcholine tracer, and thus neglected from the calculations.
as §1

TGase 1 [3] = biological target: T1, TGase 1; experiment: 14C-putrescine labeling of involucrin Gln residues by TGase 1; format: biochemical
Protocol: This was set far below saturating amounts on SLV in order to ensure that all enzyme was bound to the SLV.
After 4 h incubation at 37° C., the reactions were stopped by addition of EDTA to 10 mM and 100 μl 20% SDS, and vortexed. This mixture was precipitated and washed three times with acetone-triethylamine-acetic acid (90:5:5) (Konigsberg, W. H. and L. Henderson, Meth. Enzymol., 91: […] (1983), herein expressly incorporated by reference in its entirety) to remove the SDS and the lipids. After repeated washings with acetone, the pellet was redissolved in a buffer of 50 mM Tris-Cl (pH 7.5), and digested for 16 h at 37° C. with 2% (by weight) of modified trypsin (Boehringer Mannheim, Indianapolis, Ind.). Aliquots of 20 μg were resolved on a 250×4.6 mm Beckman Ultrasphere C18 HPLC column. Separated peaks were analyzed for radioactivity and peaks containing activity were attached to a solid support for sequencing as before (Steinert, P. M. and L. N. Marekov, J. Biol. Chem., 270: 17702-17711 (1995), herein expressly incorporated by reference in its entirety). As the peptide number 40 eluted by 50% acetonitrile (see FIG. 9) was too long for direct sequencing, it was subjected to limited proteolysis by dispase and was sequenced from four peptides isolated by HPLC chromatography as above. […]

TGase 1 [4] = biological target: T1, TGase 1; experiment: Kinetic parameters of 14C-putrescine incorporation by TGase 1; format: biochemical; conditions: for Km: KM pertains to the protein substrate, read-out: KM(app); for Vmax / kcat(putrescine): putrescine incorporation, 37° C.
Excerpt: One possibility is that this KM increase is due to the reduced diffusional mobility of the enzyme after attachment to the SLV. […] (Table 1). One reason for this is that a reduced access to many of the Gln residues occurs after anchorage of the enzyme. On the other hand, the Vmax value for the recombinant SPR2 substrate was almost unchanged.
The reaction rates were quantified by measuring the incorporated radioactivity as before (Thomas, M. V., Cellular Calcium, McCormack, et al., eds., pp. 115-123 (1991), herein expressly incorporated by reference in its entirety). Kinetic constants were obtained using the curve-fitting and regression analysis Sigmaplot 4.0 software. All data points represent the means of three measurements, each performed in triplicate.

[5] = SLV containing 15% PS compared to solubilized TGase 1 and soluble involucrin

B1: TGase 1: recombinant full-length human transglutaminase 1 expressed in Sf9 cells by baculovirus, solubilized or bound to SLV (protein)
chain: T1 sequence (P22735 1-817)
Ca++ concentration above which enzyme becomes active in cross-linking (TGase 1 [1]; TGase 1 bound to SLV): above 10 μM
lowering of Ca++ concentration required for cross-linking of involucrin versus soluble enzyme and substrate (TGase 1 [1]; membrane-bound versus soluble TGase 1): 10 fold
Ca++ concentration above which enzyme becomes active in cross-linking (TGase 1 [1]; solution assays): above 100 μM
saturating amount on SLV ([2]; SLV composed of 15% PS): approximately 0.9 nmol of TGase 1/μmol of lipid
binding to SLVs ([2]; TGase 1 purified by the NH2OH—HCl method (S-acyl adducts hydrolysed)): unable to bind to SLVs
binding to SLVs ([2]; TGase 1 purified from Triton X-100 extracts (lipid adducts retained)): spontaneously associates with SLVs

B2: Involucrin: recombinant purified human involucrin expressed in E. coli (protein)
chain: MSQQHTLPVTLSPALSQELLKTVPPPVNTHQEQMKQPTPLPPPCQKVPVELPVEVPSKQEEKHMTAVKGLPEQECEQQQKEPQEQELQQQHWEQHEEYQKAENPEQQLKQEKTQRDQQLNKQLEEEKKLLDQQLDQELVKRDEQLGMKKEQLLELPEQQEGHLKHLEQQEGQLKHPEQQEGQLELPEQQEGQLELPEQQEGQLELPEQQEGQLELPEQQEGQLELPEQQEGQLELPQQQEGQLELSEQQEGQLELSEQQEGQLKHLEHQEGQLEVPEEQMGQLKYLEQQEGQLKHLDQQEKQPELPEQQMGQLKHLEQQEGQPKHLEQQEGQLEQLEEQEGQLKHLEQQEGQLEHLEHQEGQLGLPEQQVLQLKQLEKQQGQPKHLEEEEGQLKHLVQQEGQLKHLVQQEGQLEQQERQVEHLEQQVGQLKHLEEQEGQLKHLEQQQGQLEVPEQQVGQPKNLEQEEKQLELPEQQEGQVKHLEKQEAQLELPEQQVGQPKHLEQQEKHLEHPEQQDGQLKHLEQQEGQLKDLEQQKGQLEQPVFAPAPGQVQDIQPALPTKGEVLLPVEHQQQKQEVQWPPKHK
putrescine incorporated (TGase 1 [3]; membrane-bound TGase 1 (Sf9 particulate membranes or SLV with 15% PS)): approximately 1 mol of putrescine/mol of invol
putrescine incorporated (TGase 1 [3]; solubilized recombinant TGase 1, no membranes or SLV, 20 mM putrescine, 4 h, 37° C.): about 20 mol of putrescine incorporated/mol of involucrin
decrease of KM (TGase 1 [4]; [5]): approximately 40 fold
decrease of kcat value (TGase 1 [4]; [5]): 200 fold
kinetic parameters as a substrate (TGase 1 [4]; SLV formulated in the absence of PS): immeasurably low
Km (TGase 1 [4]; SLV-bound TGase 1 (15% PS)): 2.9 ± 0.4 µM
Vmax (TGase 1 [4]; SLV-bound TGase 1 (15% PS)): 2.4 ± 0.4 pmol/min
kcat(putrescine) (TGase 1 [4]; SLV-bound TGase 1 (15% PS)): 0.0425 s⁻¹
Vmax (TGase 1 [4]; Solubilized TGase 1, 0.94 pmol): 482 ± 37 pmol/min
kcat(putrescine) (TGase 1 [4]; Solubilized TGase 1, 0.94 pmol): 8.55 s⁻¹
Km (TGase 1 [4]; Solubilized TGase 1): 114 ± 19 µM
Ca++ concentration above which binding to SLV occurs ([2]; SLV containing 12-18% phosphatidylserine): above 1 μM
amount saturating SLV ([2]; SLVs containing 15-30% PS): 0.43±0.02 nmol involucrin/μmol lipid
free Ca++ concentration at which binding to SLVs was first detected ([2]; SLVs containing 15 mol % PS): 1 :M
free Ca++ concentration for maximal binding to SLVs ([2]; SLVs containing 15 mol % PS, saturating involucrin): > 20 µM
